Results as given in the Human Domainome abundance scans (Beltran et al. 2025).
± gives the uncertainty stated by the source.

B1: KAT8 regulatory NSL complex subunit 2, residues 28 to 91; numbered along this chain, Q9H9L4 (parent)
chain: CAFTHRPCSHPRLEGQEFCIKHILEDKNAPFKQCSYISTKNGKRCPNAAPKPEKKDGVSFCAEH

Variants of: B1
Assay: abundance fitness (aPCA) (normalised: wild type 0, dead -1); higher = more abundant; growth selection in yeast, the domain comes from the species named
Details: Homo sapiens
For A49K, the abundance fitness was -0.321 ± 0.077.
Variant A49R has an abundance fitness of -0.332 ± 0.053.
Work on A49Q yielded an abundance fitness of -0.3 ± 0.066.
Variant A49L has an abundance fitness of -0.094 ± 0.044.
A49E gave an abundance fitness of -0.212 ± 0.17.
With A49Y the abundance fitness was -0.261 ± 0.12.
In the case of A49C, the abundance fitness is reported as -0.148 ± 0.091.
Variant G15N has an abundance fitness of -0.134 ± 0.12.
Work on G15V yielded an abundance fitness of -0.972 ± 0.076.
Work on G15T yielded an abundance fitness of -0.428 ± 0.089.
Work on G15Y yielded an abundance fitness of -0.706 ± 0.3.
Work on G15M yielded an abundance fitness of -0.199 ± 0.07.
Variant G15H has an abundance fitness of -0.263 ± 0.11.
Work on G15R yielded an abundance fitness of -0.228 ± 0.056.
With E17M the abundance fitness was -0.041 ± 0.075.
E17Y gave an abundance fitness of -0.106 ± 0.073.
Variant E17W has an abundance fitness of -0.26 ± 0.082.
Variant E17K has an abundance fitness of -0.15 ± 0.068.
In the case of E17C, the abundance fitness is reported as -0.112 ± 0.12.
E17N gave an abundance fitness of -0.023 ± 0.15.
In the case of C19W, the abundance fitness is reported as -1.28 ± 0.091.
C19R showed an abundance fitness of -1.17 ± 0.063.
In the case of C19A, the abundance fitness is reported as -0.973 ± 0.061.
In the case of C19Y, the abundance fitness is reported as -1.38 ± 0.21.
C19K gave an abundance fitness of -0.572 ± 0.091.
For C19N, the abundance fitness was -1.27 ± 0.12.
Work on C19I yielded an abundance fitness of -1.19 ± 0.069.
With C19H the abundance fitness was -1.63 ± 0.37.
C19Q gave an abundance fitness of -0.878 ± 0.08.
In the case of A48W, the abundance fitness is reported as -0.333 ± 0.062.
A48C showed an abundance fitness of -0.078 ± 0.092.
Variant A48V has an abundance fitness of -0.178 ± 0.056.
Variant A48S has an abundance fitness of -0.168 ± 0.051.
A48M gave an abundance fitness of -0.159 ± 0.053.
A48F showed an abundance fitness of -0.204 ± 0.075.
With A48N the abundance fitness was -0.293 ± 0.098.
A48P showed an abundance fitness of -0.079 ± 0.054.
A48H gave an abundance fitness of -0.336 ± 0.19.
Work on A29I yielded an abundance fitness of -0.358 ± 0.1.
For A29R, the abundance fitness was -0.167 ± 0.037.
A29L gave an abundance fitness of -0.217 ± 0.065.
Work on A29K yielded an abundance fitness of -0.186 ± 0.079.
A29M gave an abundance fitness of -0.204 ± 0.074.
For A29D, the abundance fitness was -0.225 ± 0.1.
K43A gave an abundance fitness of -0.117 ± 0.056.
In the case of K43Y, the abundance fitness is reported as -0.052 ± 0.072.
K43W showed an abundance fitness of -0.141 ± 0.074.
In the case of K43D, the abundance fitness is reported as -0.04 ± 0.12.
K43S gave an abundance fitness of -0.042 ± 0.048.
In the case of K43I, the abundance fitness is reported as -0.181 ± 0.088.
K43Q showed an abundance fitness of -0.057 ± 0.13.
K43H gave an abundance fitness of -0.063 ± 0.064.
For K43C, the abundance fitness was -0.141 ± 0.08.
Work on C34R yielded an abundance fitness of -0.578 ± 0.071.
For C34W, the abundance fitness was -0.674 ± 0.065.
C34T showed an abundance fitness of -0.71 ± 0.097.
Work on C34M yielded an abundance fitness of -0.542 ± 0.089.
Variant C34I has an abundance fitness of -0.56 ± 0.16.
For C34S, the abundance fitness was -0.321 ± 0.058.
For C34E, the abundance fitness was -0.185 ± 0.073.
For C34F, the abundance fitness was -0.664 ± 0.17.
H10K gave an abundance fitness of -0.113 ± 0.08.
With H10V the abundance fitness was -0.149 ± 0.06.
For H10A, the abundance fitness was -0.126 ± 0.066.
Work on H10P yielded an abundance fitness of -1.12 ± 0.12.
For H10I, the abundance fitness was -0.013 ± 0.13.
Work on H10Q yielded an abundance fitness of -0.078 ± 0.086.
For P50M, the abundance fitness was -0.219 ± 0.13.
In the case of P50C, the abundance fitness is reported as -0.1 ± 0.074.
In the case of H5T, the abundance fitness is reported as 0.034 ± 0.091.
H5K gave an abundance fitness of -0.083 ± 0.14.
With H5C the abundance fitness was -0.112 ± 0.063.
For H5S, the abundance fitness was -0.144 ± 0.068.
Variant I20R has an abundance fitness of -0.117 ± 0.045.
I20P gave an abundance fitness of -0.184 ± 0.072.
I20E gave an abundance fitness of -0.129 ± 0.07.
Work on I20S yielded an abundance fitness of -0.136 ± 0.068.
With I20C the abundance fitness was -0.14 ± 0.064.
With I20A the abundance fitness was -0.048 ± 0.063.
D56I showed an abundance fitness of -0.2 ± 0.1.
Variant D56S has an abundance fitness of -0.067 ± 0.063.
D56F gave an abundance fitness of -0.137 ± 0.14.
Variant D56P has an abundance fitness of -0.096 ± 0.074.
I23K gave an abundance fitness of -0.165 ± 0.085.
In the case of I23V, the abundance fitness is reported as -0.124 ± 0.048.
In the case of I23P, the abundance fitness is reported as -0.627 ± 0.062.
K40G gave an abundance fitness of -0.196 ± 0.29.
K40Y gave an abundance fitness of -0.052 ± 0.19.
Work on P7M yielded an abundance fitness of -0.05 ± 0.067.
With P7C the abundance fitness was -0.201 ± 0.091.
P7W showed an abundance fitness of -0.148 ± 0.06.
Work on P7V yielded an abundance fitness of -0.1 ± 0.052.
For P7L, the abundance fitness was -0.101 ± 0.046.
For P7S, the abundance fitness was -0.14 ± 0.053.
Variant P7D has an abundance fitness of 0.003 ± 0.1.
For C8W, the abundance fitness was -1.24 ± 0.093.
Work on C8M yielded an abundance fitness of -0.937 ± 0.084.
Variant C8S has an abundance fitness of -0.891 ± 0.059.
Variant C8Q has an abundance fitness of -0.832 ± 0.093.
In the case of C8D, the abundance fitness is reported as -0.646 ± 0.085.
Variant C8A has an abundance fitness of -0.883 ± 0.076.
With R12L the abundance fitness was -0.27 ± 0.06.
In the case of R12D, the abundance fitness is reported as -0.93 ± 0.22.
In the case of R12F, the abundance fitness is reported as -0.77 ± 0.066.
With G57S the abundance fitness was -0.372 ± 0.28.
Variant L24R has an abundance fitness of -0.164 ± 0.054.
For L24E, the abundance fitness was -0.234 ± 0.075.
L24K gave an abundance fitness of -0.261 ± 0.079.
With L24G the abundance fitness was -0.098 ± 0.047.
Variant L24M has an abundance fitness of -0.093 ± 0.067.
Variant L24Y has an abundance fitness of -0.168 ± 0.085.
Work on R44S yielded an abundance fitness of -0.038 ± 0.05.
Variant R44M has an abundance fitness of -0.04 ± 0.059.
For R44F, the abundance fitness was -0.144 ± 0.089.
R44D gave an abundance fitness of -0.102 ± 0.091.
R44N showed an abundance fitness of -0.014 ± 0.13.
R44T gave an abundance fitness of -0.029 ± 0.077.
F3P showed an abundance fitness of -0.639 ± 0.074.
Variant F3W has an abundance fitness of -0.161 ± 0.061.
In the case of F3M, the abundance fitness is reported as -0.172 ± 0.085.
Work on F3C yielded an abundance fitness of -0.14 ± 0.077.
Work on F3N yielded an abundance fitness of -0.312 ± 0.1.
F3L showed an abundance fitness of -0.332 ± 0.049.
In the case of F3D, the abundance fitness is reported as -0.255 ± 0.075.
Variant N41T has an abundance fitness of -0.195 ± 0.075.
N41V gave an abundance fitness of -0.031 ± 0.05.
Work on N41W yielded an abundance fitness of -0.171 ± 0.07.
A62F showed an abundance fitness of -0.111 ± 0.066.
In the case of A62R, the abundance fitness is reported as -0.028 ± 0.035.
S38Q gave an abundance fitness of -0.08 ± 0.08.
In the case of S38N, the abundance fitness is reported as -0.122 ± 0.062.
Work on Q33I yielded an abundance fitness of -0.124 ± 0.087.
Work on Q33D yielded an abundance fitness of -0.238 ± 0.12.
In the case of Q33K, the abundance fitness is reported as -0.05 ± 0.061.
With Q33S the abundance fitness was -0.182 ± 0.061.
Work on Q33V yielded an abundance fitness of -0.03 ± 0.06.
Q33L gave an abundance fitness of 0.004 ± 0.055.
For Q33E, the abundance fitness was -0.049 ± 0.088.
Q33R showed an abundance fitness of -0.081 ± 0.053.
For Q33M, the abundance fitness was -0.062 ± 0.056.
Work on Q33N yielded an abundance fitness of -0.11 ± 0.073.
For S35W, the abundance fitness was -0.169 ± 0.1.
Variant S35E has an abundance fitness of -0.014 ± 0.064.
With S35A the abundance fitness was -0.04 ± 0.06.
In the case of E14C, the abundance fitness is reported as -0.168 ± 0.053.
In the case of E14I, the abundance fitness is reported as -0.219 ± 0.1.
Variant E14P has an abundance fitness of -0.141 ± 0.067.
E14N gave an abundance fitness of -0.334 ± 0.18.
Work on H64V yielded an abundance fitness of -0.534 ± 0.12.
With H64R the abundance fitness was -0.427 ± 0.11.
In the case of H64L, the abundance fitness is reported as -0.602 ± 0.081.
H64P gave an abundance fitness of -0.401 ± 0.13.
In the case of H64S, the abundance fitness is reported as -0.315 ± 0.15.
Work on Q16P yielded an abundance fitness of -1.11 ± 0.11.
In the case of Q16N, the abundance fitness is reported as -0.25 ± 0.086.
Q16T gave an abundance fitness of -0.15 ± 0.074.
In the case of Q16I, the abundance fitness is reported as -0.497 ± 0.09.
Q16W showed an abundance fitness of -0.226 ± 0.058.
Work on K21R yielded an abundance fitness of -0.058 ± 0.054.
K21P gave an abundance fitness of -0.904 ± 0.085.
With K21M the abundance fitness was -0.159 ± 0.068.
K21Y showed an abundance fitness of -0.227 ± 0.16.
K21N gave an abundance fitness of -0.125 ± 0.095.
Work on K21D yielded an abundance fitness of -0.149 ± 0.13.
Work on K21T yielded an abundance fitness of -0.157 ± 0.079.
K21F showed an abundance fitness of 0.048 ± 0.12.
G42H showed an abundance fitness of -0.141 ± 0.092.
